The text below walks through data of the supplement of paper PMC12636428.

The subject of the data set is Saccharomyces cerevisiae. Kind of data set: transcriptional activation domain activity (GFP:mCherry ratio, weighted mean of sorted bins, harmonized to initial dataset scale) (arbitrary fluorescence ratio units); higher = stronger transcriptional activation. As to conditions: beta-estradiol 1 µM; induction time 4 h. The gist of the method: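 Barcoded protein tiles fused to an estradiol-inducible synthetic transcription factor were integrated at the yeast URA3 locus, in diploids carrying a GFP reporter. Cultures were diluted 1:5 into SC with 1 uM beta-estradiol, held 4 hours at 30 °C, sorted into 8 bins by GFP:mCherry ratio, and barcodes sequenced. Tiles under 50 reads were discarded. Activation activity is the read-weighted mean of bin median fluorescence, averaged across barcodes, then linearly mapped onto the initial dataset scale.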

Turning to “YIPEHLRSYVLVAHLLEMCNLHTVFLPQLLDPLIVLCLQHRLTIQAFAFIKTR”, the “transcriptional activation domain activity” value is 77300.
The result for “YIPVNYFLVVLYSNKEYPGLYKEIEKGLILLYHICTIRNDGTMFLNMKLYKNK” reads 36000.
Under “YIQDIQCLQFENGGVGRMELEAKHWMIYHGILLAKILRLLEDSPLKRFTIVNA” stands 47800; under “YISHSRCLLVFPVLPFFVHYLLFVFSFALLQIIALEILSLVLFVLDLLSLFPH”, 32800.
Under “YKCVGLSPDCKTAFFMNVTAFLVCPLANFESGKIPKTDLILLSKSSRECKYKA” stands 29600; under “YKEWDELVKYFFRQVTKRVQERPELVVEMLFSKIPATIFFLDHGYDRELPSRA”, 46400; under “YKKLQWHYFLFDLCYYVNILNFVFLWIFPHSPSLFVACYCLSLGSVASAIITW”, 27700.
For the sequence “YKNLSKYPIVKSAVALISLVQSLCRTMHSMPFHTEEYIRMIEVVLLKYYEKCY”, the “transcriptional activation domain activity” value was 34300.
“YKTCILPGADPGVNYIVGDDYLAVNYGYYVWQRWINFIAVCLFFLFFTVLTCL”: the “transcriptional activation domain activity” value stood at 55900.
Turning to “YKTLDSCCSQLEGYLSRFALKLSHTHLLHLQRLLTLLHAFIAFTKEWQHNARK”, the “transcriptional activation domain activity” value is 59400.
The result for “YKTTMARLIYLMDDKFKLFDHLRALKKYLLLGQGDFIALLMESLASNLDRPAN” reads 55100; that for “YKVPTASLKDGCLCVNVASEKNFEKDVREKASIYLPSVGKVTILMLLRNLLRL”, 55000; that for “YLAGPRVPFAPLSLPGIFLPTTWWNPGVFYFWTWRNHFYKTWGETVGFAPWFS”, 80500.
The result for “YLAYCWQPDISWCPNLTLLNHWYNLTPYWFILMFIWNNLSCILMMINMIQLYF” reads 67800.
The result for “YLEWLLLHHIHTIVGRRKDINWHIVCMDRWNIWYNTLRLSDTFALVGIIISIF” reads 58500; that for “YLFLFYLTILVWFGLFYFIQFFFYLSFHFLFCFVLLLFFTFVFWGVFIFCFFF”, 45500; that for “YLFYRLGLNIREIQLRSRGLILLQSLSVLGWSLLASSFSGLYFIGYPCFIHWW”, 42700.
Consider “YLHAVLCELQSSFNRKATTRSKLTHTPNLPEYTFPFAWLTLPFAAARRCTPAG”, for which the “transcriptional activation domain activity” value was found to be 66600.
On to “YLIGFIGFVMSLQKQYLKSQFGLFCWVHMSLLVIVVSSHFIINNIFEGLIWFW”, for which the “transcriptional activation domain activity” value was determined as 79300.
The result for “YLIIISFFSFSFYLLIHMQYINPKGHPPLKFYQLIIWRWCATMCAYFFLSLAY” reads 62000; that for “YLIILILFCFCHLWELDRWAHSLASQEKLRYSCVIGLTIFRLRCPLSLTKDAP”, 48900.
The result for “YLINLLYQLLWLVPFSAPLSLRSTLAKVYEFGGVHSGSAICSVLWFILLTVFL” reads 64900; that for “YLIRLILVILLMEFMLHYIYVQALCKSKNFENYTPYQLLMISFFSLKFIWLKL”, 58900.
The result for “YLKELTRCAKLPYSTRAMKNLNNVAITCACTLLVSVPHFNFRGDLLKIIVAKV” reads 39500; that for “YLMHGLVLFSIVPSVFIPIYEYHQLSYIAASMICAFIYIIFAVICGWLFWWTV”, 40600.
For “YLMVLYYTSRPVLFLVCAGNELCFIFIYCLGWFSHWLLWLGLLISIPVCLFKQ”, the “transcriptional activation domain activity” value is 71800.
Under “YLPTLPDAFPFGADIGSLDAISNIPWMSWNPVMAHFSFPWFMDELEMPLELPD” stands 102000; under “YLPYIVFPLTPQLSGPLCELYPSRGNLYDIFLHSILIMMQLPFILSVPFWLLF”, 45500.
The result for “YLSFLGIGVTFYTFLLLFFFLEDLEDFLVFFEGVLMIFLKLFIVFWTSLLVFL” reads 62000.
For the sequence “YLTRHVRLFGKLFRRMQQLHATRFVTLPLSSDLILYYWSKVVQASTALPEFIA”, the “transcriptional activation domain activity” value worked out at 51600.
Under “YLVHAGVTQDFSLIGRKGVYSLGELEEIRHWVHQALLHCRLLLVCRKALQLVY” stands 71800.
The result for “YLVMVYAWILWLSLVVLLALIAFYLFMVIWNIDRGTPSPVCLVVFCMQFICTL” reads 44200; that for “YLVRHRGEIFDNFQARKEQLLCPVYIRWLRLIWQILLSCCHVIFKSHPWMVFM”, 57700.
Under “YLYLCLQLLYYCRYCVFAIYTCHLPFAYTCMLMLLATGPYFYGLFICLRYLCC” stands 24900; under “YMCTCAWSVIWAQQLYTRGPLLQFIAKHTNYAGKPSMTFNQIVLLWVLYQIQG”, 49800; under “YMEIVCEKQLLVVSKVNRGWLYMAITQADLVYWATLSLASHYRDSKSVALTYF”, 62500.
With “YMGSVNLVHYYGVRTFSFILLGPCLTLVVVYRVLALFQSANQQFYILVLAYIA”, the “transcriptional activation domain activity” value turned out to be 36200.
Under “YMIGLLFRTYFKLKSLNLCKNVLRAVSVSELPSLSEFPKAHQVTFRYYTGVLS” stands 70100.
The result for “YMYLVIVVTFLSILKTSQAIAVVWVQNVLFFANPDIARTLLNIAWWQNSVTLM” reads 54800; that for “YMYSAFMRFFILGWPSYLVVVASIAVVLLLHILYFLVQLQLKNIFLLLLHCFA”, 60400.
The result for “YNGLPRFKWFISTVWVIYAGSCLLPFAGMVGTQILPLNRCIGVFKKPYPAILF” reads 63300; that for “YNGYHKVGEHYLLCKAVVDHKKKSSIHVHLIEVQPTVFNILEGLLYPKILFSS”, 53500.
“YNIRAKGFNIFNITISVALVFNQYVNPIALAALTWKYYVVYCVWLVCECIFLY”: the “transcriptional activation domain activity” value was 60100.
Under “YNIRAKGFNIFNITISVGLIFNQYVNPIALAVLTWKYYVVYCAWLLCEVLFLY” stands 81900; under “YNLVLSHNLVLSHLWHHYYVQHLHGLLRSFSSINLPFLLHLPLSLLLLHWVTW”, 55700; under “YNVWILFRHLVDLILLNDFVAYSLFGFSWMQFSPNHSTFFHVLRWIGGWSLVG”, 69200.
Under “YPFLLKLCFDIFLLPLHFFYFPFFFSLITHYIFFFTGTLSHLYICFILLCLFL” stands 36400.
Under “YPKALPFYGKILGYMTSIYDTIARLAFLKTLQPQGPLDYMLWLVIMTATRIFY” stands 53800; under “YPLLVCLLDLVKNNSLDDTGWLIGLGCTLWYENSIYIVRKAMELCLRAQEKID”, 52000; under “YPNLSGNTFICSSRGSITGRMTVSGDDFIASQYDYSYSHVWRNLGILIAFWIF”, 53500.
Regarding “YPVGKQVLARYPETTTFYRAEVMGTKRDGTCRLKFEGEEEVGKETEVERRLVL”, the “transcriptional activation domain activity” value was 77100.
The result for “YQKLLVDARQAAEMFFKMLHYELWTHLLERLLRLRQMCNHWSLCKKKGMENCR” reads 54300; that for “YQLASDRSADCGLLRLVLDAQTFGATAAVIVLDWARPWRFIKSLLRWMHVLST”, 42000; that for “YQNLYFIQLLVSCWALIGMLHLSLNRFEHLHFMVYMRPSGSKYLVAISWCLFL”, 66900.
The result for “YQTGYFSEAHFFLFFLFFYFRKSFSFQSNCISYTLPFGLLPIFFSTTIVLFWF” reads 66400; that for “YQVYYYYQHFRNDAFGMQCLVYGASLINLLHSILLPKCVYFWVSTYWGNLSAL”, 60400; that for “YQWVNYDLDTICMNFWTLKFLPDELPPIKHFSVVANDCKLFMYNVMGIIRFMS”, 82700.
Under “YRALHQRIWDEGLYECNYRAYAIECTRYVLLFTLMWVCLYFQRYFLGAFFLGA” stands 83700.
For “YREIPPEQLHGFPRIVDDINYNPVFLFDTFAAYTTLINYWMHMLILRSNTFLL”, the “transcriptional activation domain activity” value amounted to 53100.
For the sequence “YRHLKPIMISSPVFCYLQLLGLIMCYLSLLVKVGKPSPSICISRQFLLPMGFV”, the “transcriptional activation domain activity” value worked out at 43200.
Under “YRISLAILQLCKDHLLQSCPTNSEILAFLLHIPHDYLTADVLLDTAFHIKLSK” stands 54000.
The result for “YRLLLSLVVRLYFFLRFSLSHTLRTVVIVLAPLTYFLSGITYIFFTAPYRVLF” reads 61800.
The result for “YRSRGIDEGRGKREAGRERERAERRSTKEAEKGGEGRWEGRSARRKEAGGKKG” reads 56700.
On to “YRTSQDLVGLSTVLEQYFNIGGLTGLLIIGDLIHCGLLPMPSIITWTRLIAHV”, for which the “transcriptional activation domain activity” value amounted to 68800.
The result for “YSASPLEGDSSLPSSLPSSTEDCLLLSLENTITVIAGNQRQAYDSTSSTEEGT” reads 16100; that for “YSHLFNLHTVVFDNYLLYHNAFLLFPLVFCVLPICAIFCFCGMLCNLNRLSGR”, 66600; that for “YSILLSVILIFWWSVFTYYPSHLSYLSQRFSYYVWGDDSIDAVTVFKAWVYAH”, 61800.
Turning to “YSIQVFMVPQLAICKVDSIGNVIGGQGGCYNLIPVFDWVRRCVVSIFLVFMVA”, the “transcriptional activation domain activity” value is 71500.
The result for “YSIYVYRYFLYQWGDLCYMALHPTTSSLIGVIVCKLEPHRSGPFRGYIAMLAV” reads 42600; that for “YSLNIFIFGNGRYGSTIQANLHGLRSFIRLVPKDCLALIRHLHLHIFFSGLPD”, 54800; that for “YSMPSEICIVGFSGVNTAFIVSLLVDLGFQASPIYSMYMFFLTWRFCARLVHY”, 66500.
“YSNSISNSNSNSTGNLNSSYFNSLNIDSMLDDYVSSDLLLNDDDDDTNLSRRR”: the “transcriptional activation domain activity” value amounted to 88700.
On to “YSPLYLAITFAVQYGISFTSMTAVVVRTILWYRHDITWTFTLIYSSLGVAAFV”, for which the “transcriptional activation domain activity” value was 63700.
As for “YSQLILYLLAKAKLHWNELQNLQVIFADLFEHIHIAGILPNKYQTLSVMANAL”, the “transcriptional activation domain activity” value is 56500.
